# From PMC2592702 (PLoS ONE, 2008)
# Where a chain is given by its changes, count along the chain named.
# T1: POM2 epitope-mimicking peptide of the competition BIAcore experiment (Mus musculus)
# T1 chain: QPHGGGW
# B1: POM19 monoclonal antibody (antibody, V domains shown)
# VH: EVKLMESGAELMKPGGSVKISCKATGYTFYSYWIEWIKRRPGHGLEWIGEILPGTGDTKYSEKFKGRATFTADPSSNTAYMQLSSLTSEDSAVYYCTRLIYYRYDDYALDYWGQGTSVTVSS
# VL: DIVMTQSPAVMSASPGEKVTMTCSASSSISYMHWYQQKPGTSPKRWIFDTSKLASGVPARFSGSGSGTSYSPTISSMEAEDAATYFCHQRIIYPTFGGGTKLEMK
# B2: POM2 scFv, purified and refolded (scFv, V domains shown)
# VH: EVKLQESGGEVVRPGTSVKVSCKASGYAFTNYLIEWVKQRPGQGLEWIGVINPGSGDTNYNEKFKGKATLTADKSSSTAYMQLNSLTSDDSAVYFCARSGVAAPYYYAMDYWGQGTSVTVSS
# VL: DIVMTQSHKFMSTSVGDRVSITCKASQDVGTALAWYQQKPGQSPKLLIYWASTRHTGVPDRFTGSGSGTDFTLTISNVQSEDLSDYFCQQYSSYPTFGGGTKLEIK
# B3: POM11 monoclonal antibody (antibody, V domains shown)
# VH: DVMLVESGPELEKPGASVRISCKASGYSFTGYNMDWVKQNNGKSLEWIGSIDPYYGGTSYNQSFKDKATLTVDKSSGTAYMQLKSLTSDDSAVYYCARGGVGPYYYALDYWGQGTSVTVSS
# VL: B2 VL with M4L, T31S, L33V, A51S, S84A, Q89H, S92N, Y94S, G99R, I105L
# Tests used:
# [1] = molecular target: T2, N-terminally truncated recombinant mouse PrP, residues 121–231 (rmPrP_(121-231)) (Mus musculus, UniProt P04925); test: SPR; […]; antibody 420 pM–110 nM in HBS-EP at 20 µl/min, 20 min dissociation, […]; conditions: both partners purified
# T2 sequence (P04925 whole entry, looked up, the tested form may be a part): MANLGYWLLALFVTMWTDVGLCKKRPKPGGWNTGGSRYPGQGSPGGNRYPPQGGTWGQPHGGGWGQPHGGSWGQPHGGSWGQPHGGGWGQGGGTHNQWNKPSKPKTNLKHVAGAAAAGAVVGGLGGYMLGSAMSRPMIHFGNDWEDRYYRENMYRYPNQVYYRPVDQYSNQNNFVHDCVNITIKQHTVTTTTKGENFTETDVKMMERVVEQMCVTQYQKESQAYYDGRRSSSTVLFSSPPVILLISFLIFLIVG
# [2] = molecular target: T1, POM2 epitope-mimicking peptide of the …; test: SPR; […] (100–[…]), 1 h at room temperature; […]; HBS-EP; conditions: both partners purified
# [3] = molecular target: T2, N-terminally truncated recombinant …; test: ELISA
binder,measurement,setting,value
B1,Kd,[1],0.87 nM
B2,Kd,[2],20 nM
B3,binding result,[3],no binding
